Numbered stars: 1 amine (or outer) side, 2 acyl side, 3 side chain; on linkers, the order of the positions; unused ones are H or OH. Square brackets hold non-standard residues; d marks the D form. Side chains are listed from the residue outwards. Ends that are not written are not given here. * marks the point of attachment. C18 = C18 fatty acid (C16-C22 fatty acids conjugated via γGlu/8-amino-3,6-dioxaoctanoic acid spacers); Biotin = O=C1N[C@H]2[C@H](CS[C@H]2CCCCC(=O)*)N1; γGlu = O=C(O)[C@H](CCC(=O)[*:2])N[*:1]; AEEA = NCCOCCOCC(=O)O; Aib = CC(C)(N)C(=O)O
T1: human glucose-dependent insulinotropic polypeptide receptor (GIPR), expressed on CHO-K1 cells (human, UniProt P48546 22-466)
T1 sequence (looked up): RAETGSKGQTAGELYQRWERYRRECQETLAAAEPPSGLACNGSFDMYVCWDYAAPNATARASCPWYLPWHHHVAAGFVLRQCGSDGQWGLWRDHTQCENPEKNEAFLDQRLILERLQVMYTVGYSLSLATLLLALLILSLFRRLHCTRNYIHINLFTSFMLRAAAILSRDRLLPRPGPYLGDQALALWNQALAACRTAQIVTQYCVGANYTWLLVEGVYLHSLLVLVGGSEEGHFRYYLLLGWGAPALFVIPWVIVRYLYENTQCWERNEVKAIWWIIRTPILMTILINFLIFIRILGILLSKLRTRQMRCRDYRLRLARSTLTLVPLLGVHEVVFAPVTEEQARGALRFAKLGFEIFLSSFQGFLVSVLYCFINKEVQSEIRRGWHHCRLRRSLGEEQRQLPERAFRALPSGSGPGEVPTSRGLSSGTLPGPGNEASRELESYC


Legend:
Assay in all cases: cell-based or functional assay
[1] = molecular target: human glucagon receptor (GCGR), expressed on CHO-K1 cells (human, UniProt P47871 26-477)
Chain of human glucagon receptor (GCGR), expressed on CHO-K1 cells (P47871 26-477): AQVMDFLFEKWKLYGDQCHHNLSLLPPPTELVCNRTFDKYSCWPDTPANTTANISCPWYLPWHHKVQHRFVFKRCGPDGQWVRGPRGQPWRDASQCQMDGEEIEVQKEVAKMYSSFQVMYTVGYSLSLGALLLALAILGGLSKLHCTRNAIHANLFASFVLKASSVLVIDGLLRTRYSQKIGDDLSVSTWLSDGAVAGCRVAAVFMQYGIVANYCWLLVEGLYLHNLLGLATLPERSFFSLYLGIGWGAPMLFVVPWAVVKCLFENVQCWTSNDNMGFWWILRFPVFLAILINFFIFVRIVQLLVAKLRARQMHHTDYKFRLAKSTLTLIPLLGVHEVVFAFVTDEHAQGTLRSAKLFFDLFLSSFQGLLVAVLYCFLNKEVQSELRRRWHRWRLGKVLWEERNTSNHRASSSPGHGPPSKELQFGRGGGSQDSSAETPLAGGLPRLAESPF

[2] = molecular target: T1, human glucose-dependent insulinotropic …
[3] = molecular target: human GLP-1 receptor (GLP-1R), expressed on CHO-K1 cells (human, UniProt P43220 24-463)

Row | Binder | Ratio vs. GLP-1R [1] | Relative % to native ligand [1] | Ratio vs. GLP-1R [2] | Relative % to native ligand [2] | Ratio vs. GLP-1R [3] | Relative % to native ligand [3]
1 | Y[Aib]QGTFTSDYSK([AEEA-AEEA-γGlu-C18])LLDYMMQ[Aib]DFVQWLLEGGPSSGAPPPS-NH2 [SEQ ID NO. 84] | 28 | 20% | 470 | 335% | 100 | 71%
2 | Y[Aib]QGTFTSDYSK([AEEA-AEEA-γGlu-C18])LLDYMMQRDFVKWLLEGGPSSGAPPPS-NH2 (not fully specified (residue 24); printed as YAibQGT FTSDY SK*LLD YMMQR DFVB*W LLEGG PSSGA PPPS) [SEQ ID NO. 89] | 117 | 45% | 399 | 154% | 100 | 38%
3 | Y[Aib]QGTFTSDYSK([AEEA-AEEA-γGlu-C18])LLDYMMQ[Aib]DFVQYLLEGGPSSGAPPPSK-NH2 (not fully specified (residue 40)) [SEQ ID NO. 92] | 243 | 19% | 1530 | 120% | 100 | 8%
4 | Y[Aib]QGTFTSDYSK([AEEA-AEEA-γGlu-C18])LLDYMMQKDFVQWLLEGGPSSGAPPPS-NH2 (not fully specified (residue 20); printed as YAibQGT FTSDY SK*LLD YMMQB* DFVQW LLEGG PSSGA PPPS) [SEQ ID NO. 88] | 120 | 20% | 432 | 71% | 100 | 16%
5 | Y[Aib]QGTFTSDYSK([AEEA-AEEA-γGlu-C18])LLDKMMQRDFVQWLLEGGPSSGAPPPS-NH2 (not fully specified (residue 16); printed as YAibQGT FTSDY SK*LLD B*MMQR DFVQW LLEGG PSSGA PPPS) [SEQ ID NO. 86] | 157 | 142% | 639 | 575% | 100 | 90%
6 | Y[Aib]QGTFTSDYSK([AEEA-AEEA-γGlu-C18])YLDYMMQRDFVK(Biotin)WLLEGGPSSGAPPPS (ends and bridges not checked) [SEQ ID NO. 97] | 28 | 30% | 117 | 123% | 100 | 106%
